# Patent US12679878B2, “CRF2 receptor agonists and their use in therapy” (SANOFI, priority 2020, dated 2026)
# Starred links: 1 amine or outer side, 2 acyl side, 3 side chain; linkers in the order of their positions; H or OH if unused. Non-standard residues stand in square brackets, D forms with d. Groups on a side chain read outwards from the residue. No end group written: not given here. *: point of attachment. C18 diacid = O=C(O)CCCCCCCCCCCCCCCCC(=O)*; γGlu = O=C(O)[C@H](CCC(=O)[*:2])N[*:1]; AEEA = NCCOCCOCC(=O)O; Aib = CC(C)(N)C(=O)O
# B1: SEQ ID NO: 91 (peptide)
# peptide: IVLSLDVPIKLK([AEEA-AEEA-γGlu-C18 diacid])QKLLKQERQKKQREKAKTN[Aib]QILAQV-NH2
# modifications: N-terminus assumed
# SMILES: CC[C@H](C)[C@H](N)C(=O)N[C@H](C(=O)N[C@@H](CC(C)C)C(=O)N[C@@H](CO)C(=O)N[C@@H](CC(C)C)C(=O)N[C@@H](CC(=O)O)C(=O)N[C@H](C(=O)N1CCC[C@H]1C(=O)N[C@H](C(=O)N[C@@H](CCCCN)C(=O)N[C@@H](CC(C)C)C(=O)N[C@@H](CCCCNC(=O)COCCOCCNC(=O)COCCOCCNC(=O)CC[C@H](NC(=O)CCCCCCCCCCCCCCCCC(=O)O)C(=O)O)C(=O)N[C@@H](CCC(N)=O)C(=O)N[C@@H](CCCCN)C(=O)N[C@@H](CC(C)C)C(=O)N[C@@H](CC(C)C)C(=O)N[C@@H](CCCCN)C(=O)N[C@@H](CCC(N)=O)C(=O)N[C@@H](CCC(=O)O)C(=O)N[C@@H](CCCNC(=N)N)C(=O)N[C@@H](CCC(N)=O)C(=O)N[C@@H](CCCCN)C(=O)N[C@@H](CCCCN)C(=O)N[C@@H](CCC(N)=O)C(=O)N[C@@H](CCCNC(=N)N)C(=O)N[C@@H](CCC(=O)O)C(=O)N[C@@H](CCCCN)C(=O)N[C@@H](C)C(=O)N[C@@H](CCCCN)C(=O)N[C@H](C(=O)N[C@@H](CC(N)=O)C(=O)NC(C)(C)C(=O)N[C@@H](CCC(N)=O)C(=O)N[C@H](C(=O)N[C@@H](CC(C)C)C(=O)N[C@@H](C)C(=O)N[C@@H](CCC(N)=O)C(=O)N[C@H](C(N)=O)C(C)C)[C@@H](C)CC)[C@@H](C)O)[C@@H](C)CC)C(C)C)C(C)C
# B2: SEQ ID NO: 92 (peptide)
# peptide: IVLSLDVPIKLK([AEEA-AEEA-γGlu-C18 diacid])QKLLEQERQKKQREQAETN[Aib]QILAQV-NH2
# modifications: N-terminus assumed
# SMILES: CC[C@H](C)[C@H](N)C(=O)N[C@H](C(=O)N[C@@H](CC(C)C)C(=O)N[C@@H](CO)C(=O)N[C@@H](CC(C)C)C(=O)N[C@@H](CC(=O)O)C(=O)N[C@H](C(=O)N1CCC[C@H]1C(=O)N[C@H](C(=O)N[C@@H](CCCCN)C(=O)N[C@@H](CC(C)C)C(=O)N[C@@H](CCCCNC(=O)COCCOCCNC(=O)COCCOCCNC(=O)CC[C@H](NC(=O)CCCCCCCCCCCCCCCCC(=O)O)C(=O)O)C(=O)N[C@@H](CCC(N)=O)C(=O)N[C@@H](CCCCN)C(=O)N[C@@H](CC(C)C)C(=O)N[C@@H](CC(C)C)C(=O)N[C@@H](CCC(=O)O)C(=O)N[C@@H](CCC(N)=O)C(=O)N[C@@H](CCC(=O)O)C(=O)N[C@@H](CCCNC(=N)N)C(=O)N[C@@H](CCC(N)=O)C(=O)N[C@@H](CCCCN)C(=O)N[C@@H](CCCCN)C(=O)N[C@@H](CCC(N)=O)C(=O)N[C@@H](CCCNC(=N)N)C(=O)N[C@@H](CCC(=O)O)C(=O)N[C@@H](CCC(N)=O)C(=O)N[C@@H](C)C(=O)N[C@@H](CCC(=O)O)C(=O)N[C@H](C(=O)N[C@@H](CC(N)=O)C(=O)NC(C)(C)C(=O)N[C@@H](CCC(N)=O)C(=O)N[C@H](C(=O)N[C@@H](CC(C)C)C(=O)N[C@@H](C)C(=O)N[C@@H](CCC(N)=O)C(=O)N[C@H](C(N)=O)C(C)C)[C@@H](C)CC)[C@@H](C)O)[C@@H](C)CC)C(C)C)C(C)C
# B3: SEQ ID NO: 89 (peptide)
# peptide: IVLSLDVPIKLK([AEEA-AEEA-γGlu-C18 diacid])QILLKQERQKKQREQAKTN[Aib]QILAQV-NH2
# modifications: N-terminus assumed
# SMILES: CC[C@H](C)[C@H](N)C(=O)N[C@H](C(=O)N[C@@H](CC(C)C)C(=O)N[C@@H](CO)C(=O)N[C@@H](CC(C)C)C(=O)N[C@@H](CC(=O)O)C(=O)N[C@H](C(=O)N1CCC[C@H]1C(=O)N[C@H](C(=O)N[C@@H](CCCCN)C(=O)N[C@@H](CC(C)C)C(=O)N[C@@H](CCCCNC(=O)COCCOCCNC(=O)COCCOCCNC(=O)CC[C@H](NC(=O)CCCCCCCCCCCCCCCCC(=O)O)C(=O)O)C(=O)N[C@@H](CCC(N)=O)C(=O)N[C@H](C(=O)N[C@@H](CC(C)C)C(=O)N[C@@H](CC(C)C)C(=O)N[C@@H](CCCCN)C(=O)N[C@@H](CCC(N)=O)C(=O)N[C@@H](CCC(=O)O)C(=O)N[C@@H](CCCNC(=N)N)C(=O)N[C@@H](CCC(N)=O)C(=O)N[C@@H](CCCCN)C(=O)N[C@@H](CCCCN)C(=O)N[C@@H](CCC(N)=O)C(=O)N[C@@H](CCCNC(=N)N)C(=O)N[C@@H](CCC(=O)O)C(=O)N[C@@H](CCC(N)=O)C(=O)N[C@@H](C)C(=O)N[C@@H](CCCCN)C(=O)N[C@H](C(=O)N[C@@H](CC(N)=O)C(=O)NC(C)(C)C(=O)N[C@@H](CCC(N)=O)C(=O)N[C@H](C(=O)N[C@@H](CC(C)C)C(=O)N[C@@H](C)C(=O)N[C@@H](CCC(N)=O)C(=O)N[C@H](C(N)=O)C(C)C)[C@@H](C)CC)[C@@H](C)O)[C@@H](C)CC)[C@@H](C)CC)C(C)C)C(C)C
# B4: SEQ ID NO: 93 (peptide)
# peptide: IVLSLDVPIKLK([AEEA-AEEA-γGlu-C18 diacid])QKLLKQERQKKQREKAKTNVQILAQV-NH2
# modifications: N-terminus assumed
# SMILES: CC[C@H](C)[C@H](N)C(=O)N[C@H](C(=O)N[C@@H](CC(C)C)C(=O)N[C@@H](CO)C(=O)N[C@@H](CC(C)C)C(=O)N[C@@H](CC(=O)O)C(=O)N[C@H](C(=O)N1CCC[C@H]1C(=O)N[C@H](C(=O)N[C@@H](CCCCN)C(=O)N[C@@H](CC(C)C)C(=O)N[C@@H](CCCCNC(=O)COCCOCCNC(=O)COCCOCCNC(=O)CC[C@H](NC(=O)CCCCCCCCCCCCCCCCC(=O)O)C(=O)O)C(=O)N[C@@H](CCC(N)=O)C(=O)N[C@@H](CCCCN)C(=O)N[C@@H](CC(C)C)C(=O)N[C@@H](CC(C)C)C(=O)N[C@@H](CCCCN)C(=O)N[C@@H](CCC(N)=O)C(=O)N[C@@H](CCC(=O)O)C(=O)N[C@@H](CCCNC(=N)N)C(=O)N[C@@H](CCC(N)=O)C(=O)N[C@@H](CCCCN)C(=O)N[C@@H](CCCCN)C(=O)N[C@@H](CCC(N)=O)C(=O)N[C@@H](CCCNC(=N)N)C(=O)N[C@@H](CCC(=O)O)C(=O)N[C@@H](CCCCN)C(=O)N[C@@H](C)C(=O)N[C@@H](CCCCN)C(=O)N[C@H](C(=O)N[C@@H](CC(N)=O)C(=O)N[C@H](C(=O)N[C@@H](CCC(N)=O)C(=O)N[C@H](C(=O)N[C@@H](CC(C)C)C(=O)N[C@@H](C)C(=O)N[C@@H](CCC(N)=O)C(=O)N[C@H](C(N)=O)C(C)C)[C@@H](C)CC)C(C)C)[C@@H](C)O)[C@@H](C)CC)C(C)C)C(C)C
# B5: SEQ ID NO: 90 (peptide)
# peptide: IVLSLDVPIKLK([AEEA-AEEA-γGlu-C18 diacid])QILLKQERQKKQREKAKTNVQILAQV-NH2
# modifications: N-terminus assumed
# SMILES: CC[C@H](C)[C@H](N)C(=O)N[C@H](C(=O)N[C@@H](CC(C)C)C(=O)N[C@@H](CO)C(=O)N[C@@H](CC(C)C)C(=O)N[C@@H](CC(=O)O)C(=O)N[C@H](C(=O)N1CCC[C@H]1C(=O)N[C@H](C(=O)N[C@@H](CCCCN)C(=O)N[C@@H](CC(C)C)C(=O)N[C@@H](CCCCNC(=O)COCCOCCNC(=O)COCCOCCNC(=O)CC[C@H](NC(=O)CCCCCCCCCCCCCCCCC(=O)O)C(=O)O)C(=O)N[C@@H](CCC(N)=O)C(=O)N[C@H](C(=O)N[C@@H](CC(C)C)C(=O)N[C@@H](CC(C)C)C(=O)N[C@@H](CCCCN)C(=O)N[C@@H](CCC(N)=O)C(=O)N[C@@H](CCC(=O)O)C(=O)N[C@@H](CCCNC(=N)N)C(=O)N[C@@H](CCC(N)=O)C(=O)N[C@@H](CCCCN)C(=O)N[C@@H](CCCCN)C(=O)N[C@@H](CCC(N)=O)C(=O)N[C@@H](CCCNC(=N)N)C(=O)N[C@@H](CCC(=O)O)C(=O)N[C@@H](CCCCN)C(=O)N[C@@H](C)C(=O)N[C@@H](CCCCN)C(=O)N[C@H](C(=O)N[C@@H](CC(N)=O)C(=O)N[C@H](C(=O)N[C@@H](CCC(N)=O)C(=O)N[C@H](C(=O)N[C@@H](CC(C)C)C(=O)N[C@@H](C)C(=O)N[C@@H](CCC(N)=O)C(=O)N[C@H](C(N)=O)C(C)C)[C@@H](C)CC)C(C)C)[C@@H](C)O)[C@@H](C)CC)[C@@H](C)CC)C(C)C)C(C)C
# B6: SEQ ID NO: 88 (peptide)
# peptide: IVLSLDVPIKLK([AEEA-AEEA-γGlu-C18 diacid])QILLKQERQKKQREKAKTN[Aib]QILAQV-NH2
# modifications: N-terminus assumed
# SMILES: CC[C@H](C)[C@H](N)C(=O)N[C@H](C(=O)N[C@@H](CC(C)C)C(=O)N[C@@H](CO)C(=O)N[C@@H](CC(C)C)C(=O)N[C@@H](CC(=O)O)C(=O)N[C@H](C(=O)N1CCC[C@H]1C(=O)N[C@H](C(=O)N[C@@H](CCCCN)C(=O)N[C@@H](CC(C)C)C(=O)N[C@@H](CCCCNC(=O)COCCOCCNC(=O)COCCOCCNC(=O)CC[C@H](NC(=O)CCCCCCCCCCCCCCCCC(=O)O)C(=O)O)C(=O)N[C@@H](CCC(N)=O)C(=O)N[C@H](C(=O)N[C@@H](CC(C)C)C(=O)N[C@@H](CC(C)C)C(=O)N[C@@H](CCCCN)C(=O)N[C@@H](CCC(N)=O)C(=O)N[C@@H](CCC(=O)O)C(=O)N[C@@H](CCCNC(=N)N)C(=O)N[C@@H](CCC(N)=O)C(=O)N[C@@H](CCCCN)C(=O)N[C@@H](CCCCN)C(=O)N[C@@H](CCC(N)=O)C(=O)N[C@@H](CCCNC(=N)N)C(=O)N[C@@H](CCC(=O)O)C(=O)N[C@@H](CCCCN)C(=O)N[C@@H](C)C(=O)N[C@@H](CCCCN)C(=O)N[C@H](C(=O)N[C@@H](CC(N)=O)C(=O)NC(C)(C)C(=O)N[C@@H](CCC(N)=O)C(=O)N[C@H](C(=O)N[C@@H](CC(C)C)C(=O)N[C@@H](C)C(=O)N[C@@H](CCC(N)=O)C(=O)N[C@H](C(N)=O)C(C)C)[C@@H](C)CC)[C@@H](C)O)[C@@H](C)CC)[C@@H](C)CC)C(C)C)C(C)C
# Biological target: human corticotropin-releasing factor 2α (CRF2 α receptor) (human), Q13324
# Assay: cell-based or functional assay
# Sequence of human corticotropin-releasing factor 2α (CRF2 α receptor) (human), Q13324 (Q13324 20-411): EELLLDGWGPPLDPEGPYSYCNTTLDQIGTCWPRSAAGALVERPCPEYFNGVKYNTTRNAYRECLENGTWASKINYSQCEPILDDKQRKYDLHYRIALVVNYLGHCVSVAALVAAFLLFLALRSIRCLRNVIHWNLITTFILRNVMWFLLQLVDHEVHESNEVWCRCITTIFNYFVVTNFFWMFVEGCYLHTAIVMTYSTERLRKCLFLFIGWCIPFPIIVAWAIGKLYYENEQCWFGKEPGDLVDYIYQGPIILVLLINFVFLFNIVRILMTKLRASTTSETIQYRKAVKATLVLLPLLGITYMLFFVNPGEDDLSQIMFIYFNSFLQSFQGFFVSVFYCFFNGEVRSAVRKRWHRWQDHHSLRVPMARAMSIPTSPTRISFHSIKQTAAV
Binder,"EC50 [nM], 0% HSA [nM]","EC50 [nM], 0.1% HSA [nM]"
B1,14.3,
B2,9.17,
B3,0.3,15.6
B4,50.9,
B5,3.91,92.6
B6,0.68,25.7
